The text below walks through data of PMC12053377.

This experiment has as its target SARS-CoV-2 S HexaPro (Spike 6P) ectodomain trimer (SARS-CoV-2 | not stated) (UniProt P0DTC2). Description: cryo-EM structure.

With “SARS-CoV-2 S HexaPro (Spike 6P) ectodomain trimer (from UniProt P0DTC2 14-1208) (domain or fragment)”, the stoichiometry N is 3 protomers.
